In the supplement of paper PMC10065799, “High-throughput profiling of sequence recognition by tyrosine kinases and SH2 domains using bacterial peptide display” (eLife, 2023):

What follows are sequences tested on AncSZ (assay: phosphorylation enrichment, bacterial display (enrichment ratio); higher = better substrate or ligand; peptides without Tyr show the background).
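Further: 11-residue human phosphosite peptides and single-mutation variants displayed on the E. coli surface, counted by deep sequencing, each peptide's frequency after selection divided by its frequency in the unselected input library; frequency after pTyr selection over input frequency; kinase dosed for 20-30% of maximal phosphorylation in three min.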

Sequence	phosphorylation enrichment
DFSLKYATDIP [APC_Y1183_YF]	0.914
LYSNAYLSDLA [ALDH1A1_Y119_N121S]	1.68
IVAREYYSKAD [CAMK2B_Y107_E110K]	0.768
GIATGYLVLKE [DNMT3B_Y588]	0.737
PLFRVYGLESL [INSR_Y94_L89P]	1.2
KVPRHYDDPGK [FOXG1_Y246]	0.785
EEEPVYEAEPE [HCLS1_Y360]	1.49
NSNSDYVDVLP [SH2D1B_Y127]	2.46
DLAGRYFALKS [CKB_Y173_YF]	0.633
GFQPEYGQPAG [SYP_Y278_D277E_YF]	0.685
SESSYYKSLNL [NGEF_Y289_A286S]	0.876
DYGSGYPNDPK [RNASEH2A_Y210]	0.86
KLQKFYRQNPD [EHHADH_Y683_YF]	0.499
SNSAAYSGSVA [PDLIM5_Y382_T381A]	0.512
RRIHNYRGHLW [VHL_Y112_S111N]	0.577
PLQSEYSSIST [ITGB4_Y1760_T1764S]	2.59
STEEQYRIRQV [EFHC1_Y115]	0.718
SAAAIYTVRHP [PMP22_Y117]	0.615
GELQGYDIMEP [MSH2_Y863_S860L]	1.23
ADYPDYKYRPR [SOX11_Y116]	0.673
TVVGLYQKSSL [MYH7_Y609]	0.973
PGPQSYPTVTG [PAX5_Y299_I301T]	0.819
AVISVYDLVAV [PSEN1_Y256]	1.24
ESLSSYRESAK [APOC2_Y47_W48R]	0.63
GVRYIYTIDGS [DCX_Y105]	1.09
ATARPYSPFII [LRP5_Y1528_R1529S_YF]	0.627
ISSLRYELLEE [TRPC6_Y896]	1.24
EADRKYEEVAC [TPM3_Y163_R168C]	1.17
LEAVSYSSRYA [RNLS_Y190]	0.687

What follows are sequences tested against EPHB1 (UniProt P54762) in the same assay as above.
EPHB1, sequence (P54762 whole entry, looked up): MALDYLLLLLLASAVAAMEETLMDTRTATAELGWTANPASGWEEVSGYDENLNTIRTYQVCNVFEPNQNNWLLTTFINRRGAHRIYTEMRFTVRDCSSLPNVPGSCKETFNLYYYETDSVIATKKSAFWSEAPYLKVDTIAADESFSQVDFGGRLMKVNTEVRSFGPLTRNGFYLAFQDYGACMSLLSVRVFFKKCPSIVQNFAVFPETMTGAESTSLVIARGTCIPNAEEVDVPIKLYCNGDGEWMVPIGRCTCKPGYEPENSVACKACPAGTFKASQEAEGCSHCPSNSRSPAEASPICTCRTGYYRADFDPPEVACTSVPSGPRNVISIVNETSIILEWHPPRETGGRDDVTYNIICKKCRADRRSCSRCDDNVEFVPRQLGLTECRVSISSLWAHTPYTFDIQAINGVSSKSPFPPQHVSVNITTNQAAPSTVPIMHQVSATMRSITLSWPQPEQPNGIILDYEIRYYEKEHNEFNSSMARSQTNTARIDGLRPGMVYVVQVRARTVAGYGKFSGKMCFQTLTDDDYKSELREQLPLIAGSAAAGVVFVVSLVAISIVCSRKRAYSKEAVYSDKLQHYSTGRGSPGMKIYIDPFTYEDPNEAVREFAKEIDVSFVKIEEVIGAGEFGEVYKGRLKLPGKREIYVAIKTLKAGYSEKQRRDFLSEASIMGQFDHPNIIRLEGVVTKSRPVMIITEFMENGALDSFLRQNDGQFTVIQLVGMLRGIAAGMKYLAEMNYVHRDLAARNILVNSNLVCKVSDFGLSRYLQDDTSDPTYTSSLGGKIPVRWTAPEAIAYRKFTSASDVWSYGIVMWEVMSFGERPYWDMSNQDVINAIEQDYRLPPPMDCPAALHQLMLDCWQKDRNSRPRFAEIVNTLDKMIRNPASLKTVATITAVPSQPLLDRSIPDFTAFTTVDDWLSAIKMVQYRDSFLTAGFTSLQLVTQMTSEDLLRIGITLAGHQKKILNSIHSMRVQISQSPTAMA

Sequence	phosphorylation enrichment
DFSLKYATDIP [APC_Y1183_YF]	0.606
LYSNAYLSDLA [ALDH1A1_Y119_N121S]	2.99
IVAREYYSKAD [CAMK2B_Y107_E110K]	0.467
GIATGYLVLKE [DNMT3B_Y588]	0.511
PLFRVYGLESL [INSR_Y94_L89P]	0.803
KVPRHYDDPGK [FOXG1_Y246]	0.414
EEEPVYEAEPE [HCLS1_Y360]	0.664
NSNSDYVDVLP [SH2D1B_Y127]	4.08
DLAGRYFALKS [CKB_Y173_YF]	0.487
GFQPEYGQPAG [SYP_Y278_D277E_YF]	0.501
SESSYYKSLNL [NGEF_Y289_A286S]	0.503
DYGSGYPNDPK [RNASEH2A_Y210]	0.482
KLQKFYRQNPD [EHHADH_Y683_YF]	0.545
SNSAAYSGSVA [PDLIM5_Y382_T381A]	0.398
RRIHNYRGHLW [VHL_Y112_S111N]	0.714
PLQSEYSSIST [ITGB4_Y1760_T1764S]	1.81
STEEQYRIRQV [EFHC1_Y115]	0.314
SAAAIYTVRHP [PMP22_Y117]	0.54
GELQGYDIMEP [MSH2_Y863_S860L]	0.554
ADYPDYKYRPR [SOX11_Y116]	0.48
TVVGLYQKSSL [MYH7_Y609]	0.567
PGPQSYPTVTG [PAX5_Y299_I301T]	0.79
AVISVYDLVAV [PSEN1_Y256]	6.18
ESLSSYRESAK [APOC2_Y47_W48R]	0.252
GVRYIYTIDGS [DCX_Y105]	0.6
ATARPYSPFII [LRP5_Y1528_R1529S_YF]	0.403
ISSLRYELLEE [TRPC6_Y896]	0.63
EADRKYEEVAC [TPM3_Y163_R168C]	0.622
LEAVSYSSRYA [RNLS_Y190]	0.453

These sequences were tested against EPHB2 (UniProt P29323) in the same assay as above.
EPHB2, sequence (P29323 whole entry, looked up): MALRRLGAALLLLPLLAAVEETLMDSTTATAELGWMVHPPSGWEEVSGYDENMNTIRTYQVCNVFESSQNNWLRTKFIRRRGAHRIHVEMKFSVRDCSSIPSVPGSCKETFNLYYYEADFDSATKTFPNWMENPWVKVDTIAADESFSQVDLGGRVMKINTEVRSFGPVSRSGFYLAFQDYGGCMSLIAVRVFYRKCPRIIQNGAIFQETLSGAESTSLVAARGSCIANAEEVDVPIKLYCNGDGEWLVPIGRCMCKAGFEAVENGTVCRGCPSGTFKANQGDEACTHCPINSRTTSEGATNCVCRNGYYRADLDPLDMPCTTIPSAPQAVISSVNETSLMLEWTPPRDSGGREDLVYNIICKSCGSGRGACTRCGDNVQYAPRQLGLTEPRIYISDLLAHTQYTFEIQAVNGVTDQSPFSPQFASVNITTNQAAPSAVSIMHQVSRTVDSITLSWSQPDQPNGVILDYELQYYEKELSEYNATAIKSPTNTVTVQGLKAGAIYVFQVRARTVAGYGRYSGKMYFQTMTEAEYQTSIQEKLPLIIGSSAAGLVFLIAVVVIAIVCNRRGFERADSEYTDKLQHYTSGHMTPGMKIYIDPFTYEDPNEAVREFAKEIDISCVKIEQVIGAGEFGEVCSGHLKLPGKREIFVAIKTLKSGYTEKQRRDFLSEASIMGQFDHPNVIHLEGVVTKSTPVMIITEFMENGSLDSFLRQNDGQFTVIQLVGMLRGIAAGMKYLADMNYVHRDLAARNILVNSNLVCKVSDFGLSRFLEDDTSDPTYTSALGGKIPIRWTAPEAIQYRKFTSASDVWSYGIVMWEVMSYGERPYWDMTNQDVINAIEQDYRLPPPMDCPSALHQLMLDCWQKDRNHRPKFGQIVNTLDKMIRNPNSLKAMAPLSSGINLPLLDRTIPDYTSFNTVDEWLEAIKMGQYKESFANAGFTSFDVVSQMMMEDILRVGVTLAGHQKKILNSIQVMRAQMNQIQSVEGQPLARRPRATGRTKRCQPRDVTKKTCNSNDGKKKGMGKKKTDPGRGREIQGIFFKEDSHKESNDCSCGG

Sequence	phosphorylation enrichment
DFSLKYATDIP [APC_Y1183_YF]	0.619
LYSNAYLSDLA [ALDH1A1_Y119_N121S]	1.45
IVAREYYSKAD [CAMK2B_Y107_E110K]	0.602
GIATGYLVLKE [DNMT3B_Y588]	0.558
PLFRVYGLESL [INSR_Y94_L89P]	0.673
KVPRHYDDPGK [FOXG1_Y246]	0.373
EEEPVYEAEPE [HCLS1_Y360]	0.712
NSNSDYVDVLP [SH2D1B_Y127]	2.82
DLAGRYFALKS [CKB_Y173_YF]	0.574
GFQPEYGQPAG [SYP_Y278_D277E_YF]	0.542
SESSYYKSLNL [NGEF_Y289_A286S]	0.57
DYGSGYPNDPK [RNASEH2A_Y210]	0.625
KLQKFYRQNPD [EHHADH_Y683_YF]	0.348
SNSAAYSGSVA [PDLIM5_Y382_T381A]	0.393
RRIHNYRGHLW [VHL_Y112_S111N]	0.421
PLQSEYSSIST [ITGB4_Y1760_T1764S]	2.28
STEEQYRIRQV [EFHC1_Y115]	0.416
SAAAIYTVRHP [PMP22_Y117]	0.516
GELQGYDIMEP [MSH2_Y863_S860L]	0.522
ADYPDYKYRPR [SOX11_Y116]	0.489
TVVGLYQKSSL [MYH7_Y609]	0.638
PGPQSYPTVTG [PAX5_Y299_I301T]	0.725
AVISVYDLVAV [PSEN1_Y256]	4.92
ESLSSYRESAK [APOC2_Y47_W48R]	0.317
GVRYIYTIDGS [DCX_Y105]	0.552
ATARPYSPFII [LRP5_Y1528_R1529S_YF]	0.474
ISSLRYELLEE [TRPC6_Y896]	0.573
EADRKYEEVAC [TPM3_Y163_R168C]	0.609
LEAVSYSSRYA [RNLS_Y190]	0.446

What follows are sequences tested against FGFR1 (UniProt P11362) in the same assay as above.
FGFR1, sequence (P11362 whole entry, looked up): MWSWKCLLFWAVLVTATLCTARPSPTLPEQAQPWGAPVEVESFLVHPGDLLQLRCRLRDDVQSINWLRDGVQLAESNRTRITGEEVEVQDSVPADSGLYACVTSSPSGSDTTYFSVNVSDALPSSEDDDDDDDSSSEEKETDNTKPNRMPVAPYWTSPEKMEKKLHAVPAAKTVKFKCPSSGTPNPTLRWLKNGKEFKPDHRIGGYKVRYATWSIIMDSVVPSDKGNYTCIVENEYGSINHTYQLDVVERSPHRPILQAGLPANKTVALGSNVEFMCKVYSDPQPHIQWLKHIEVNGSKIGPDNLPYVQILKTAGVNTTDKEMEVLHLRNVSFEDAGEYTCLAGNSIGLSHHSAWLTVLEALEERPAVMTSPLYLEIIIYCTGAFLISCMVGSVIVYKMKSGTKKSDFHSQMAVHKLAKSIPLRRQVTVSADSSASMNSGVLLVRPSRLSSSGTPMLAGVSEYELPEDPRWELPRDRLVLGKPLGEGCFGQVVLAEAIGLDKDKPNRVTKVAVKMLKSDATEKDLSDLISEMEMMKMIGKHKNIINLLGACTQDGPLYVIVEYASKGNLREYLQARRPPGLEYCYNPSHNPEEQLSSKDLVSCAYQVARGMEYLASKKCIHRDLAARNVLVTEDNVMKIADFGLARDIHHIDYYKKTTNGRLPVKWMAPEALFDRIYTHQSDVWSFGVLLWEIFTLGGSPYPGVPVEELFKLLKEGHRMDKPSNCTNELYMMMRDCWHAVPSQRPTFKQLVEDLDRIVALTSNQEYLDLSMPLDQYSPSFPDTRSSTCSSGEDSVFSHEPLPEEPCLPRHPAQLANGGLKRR

Sequence	phosphorylation enrichment
DFSLKYATDIP [APC_Y1183_YF]	0.592
LYSNAYLSDLA [ALDH1A1_Y119_N121S]	1.14
IVAREYYSKAD [CAMK2B_Y107_E110K]	0.43
GIATGYLVLKE [DNMT3B_Y588]	0.464
PLFRVYGLESL [INSR_Y94_L89P]	0.58
KVPRHYDDPGK [FOXG1_Y246]	0.428
EEEPVYEAEPE [HCLS1_Y360]	0.646
NSNSDYVDVLP [SH2D1B_Y127]	3.73
DLAGRYFALKS [CKB_Y173_YF]	0.412
GFQPEYGQPAG [SYP_Y278_D277E_YF]	0.479
SESSYYKSLNL [NGEF_Y289_A286S]	1.01
DYGSGYPNDPK [RNASEH2A_Y210]	0.548
KLQKFYRQNPD [EHHADH_Y683_YF]	0.343
SNSAAYSGSVA [PDLIM5_Y382_T381A]	0.33
RRIHNYRGHLW [VHL_Y112_S111N]	0.433
PLQSEYSSIST [ITGB4_Y1760_T1764S]	0.944
STEEQYRIRQV [EFHC1_Y115]	0.425
SAAAIYTVRHP [PMP22_Y117]	0.487
GELQGYDIMEP [MSH2_Y863_S860L]	0.445
ADYPDYKYRPR [SOX11_Y116]	0.594
TVVGLYQKSSL [MYH7_Y609]	0.483
PGPQSYPTVTG [PAX5_Y299_I301T]	0.811
AVISVYDLVAV [PSEN1_Y256]	0.429
ESLSSYRESAK [APOC2_Y47_W48R]	0.382
GVRYIYTIDGS [DCX_Y105]	0.487
ATARPYSPFII [LRP5_Y1528_R1529S_YF]	0.409
ISSLRYELLEE [TRPC6_Y896]	0.52
EADRKYEEVAC [TPM3_Y163_R168C]	0.598
LEAVSYSSRYA [RNLS_Y190]	0.415
